± gives the standard deviation of the averaged measurements.
System: ATP
Experiment: switch fluorescence ratio, 500 uM ATP over buffer (Cy3 cluster intensity, sum of 5 cycles each) (fold (ratio)); higher = stronger signal-on switching upon ATP binding; sequences stand for … in TCGTCGGCAGCGTCAGATGTGTATAAGAGACAGTTTTTTTTTTTTTTTTTTTTTTTTT…TC
Settings: aptamer strand: ATP DNA aptamer (quencher-CACCTGGGGGAGTATTGCGGAGGAAGG + anchor), 100 nM annealed; ATP concentration: 500 uM
Outline: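 The quencher-labelled ATP aptamer, at 100 nM, was annealed to Cy3-labelled switching-strand clusters on a modified Illumina MiSeq flow-cell. The clusters were imaged in selection buffer, then after 15 min with 500 uM ATP at 22 °C, and this buffer/ATP cycle ran five times with NaOH stripping and re-annealing between runs. Per-cluster fluorescence ratios, summed target-cycle over summed buffer-cycle Cy3 intensity, were averaged per switch-domain sequence. Clusters outside 100-1000 RFU were excluded.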
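Further: ATP exposure 15 min at 22 °C before imaging.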

Sequence	switch fluorescence ratio
AGTTTTACAT	0.9608 ± 0.0018
TGTTTCTAAT	0.999 ± 0.02
GAGCTAGGGT	0.9905 ± 0.006
GGTTAATTTT	1.02 ± 0.028
TCGAGAAAGG	0.98962 ± 0.00052
ACTCGAAAAA	1.04 ± 0.026
GGTATCCGGC	1.03 ± 0.088
AGGTTGGAGA	0.992 ± 0.023
CGAGGGTTAT	1.005 ± 0.0054
GGTGGGATTA	1.014 ± 0.009
CTAGCACTGT	1.045 ± 0.0022
TTTTCTGGGG	0.994 ± 0.032
ATGAATTGGA	0.989 ± 0.017
AGCATGAGTA	1.01 ± 0.014
ATGGTTAACT	1.03 ± 0.016
ATGTGGTCTG	0.9777 ± 0.0014
TCGTTTATTA	1 ± 0.089
TTTCCTAACT	1.04 ± 0.039
CACTGAGATG	1.01 ± 0.03
TTTAACTAGT	1 ± 0.018
CCTGGTAAGT	1.04 ± 0.051
GTTTAAGGGG	1.005 ± 0.0068
TGATATTTGC	0.969 ± 0.033
AAAAGGGGGA	1.02 ± 0.022
TTCGTTTGTT	1.34 ± 0.56

Sequence	switch fluorescence ratio
ATCGGTTTCT	1.002 ± 0.0083
CGGATAGTGG	0.994 ± 0.014
GATGGTGAAA	0.975 ± 0.039
TTAATTTGGG	1.01 ± 0.024
TTGGGGGTCG	1.02 ± 0.034
AGTAGCGGGT	0.981 ± 0.026
ATCATAATTG	1.005 ± 0.0092
GGGGGGGGTG	1.02 ± 0.068
TTTCAGGGCT	1.22 ± 0.16
TGGATGGGGC	1 ± 0.012
GTTTAGAATT	1.004 ± 0.01
ACGGTCTCGG	1.01 ± 0.025
TTGGGCTGCT	0.9743 ± 0.00051
ACGTGCTCGG	1.007 ± 0.01
ACTTATGCAT	1.055 ± 0.0046
TTTAATAATG	0.988 ± 0.036
TGATGAAGAT	0.9817 ± 0.0071
GATCCTAAGC	0.99 ± 0.014
TTACCATGGA	0.995 ± 0.0021
AGGGTTGTCG	0.99 ± 0.023
GAATGGCCTT	0.9949 ± 0.0072
TTGAAGTTGT	1.01 ± 0.039
GGGTTAATGT	1.01 ± 0.061
ATATATAGTC	1.02 ± 0.025
TTACGTGAGG	1.02 ± 0.045

Sequence	switch fluorescence ratio
ACTATGGAGC	1.07 ± 0.077
GAGTAAGATC	0.999 ± 0.048
GCGGGCGGGG	1.02 ± 0.05
GACGACGGTT	1.55 ± 0.1
TAATCGGGGA	0.984 ± 0.029
GCGCTTGTAC	2.36 ± 0.55
GCGTAATGGT	1.095 ± 0.0043
CGTATGGTTG	1.06 ± 0.09
AAACTCGCGC	1.07 ± 0.012
CATTGAGTTG	0.973 ± 0.018
CTTTTTAGTG	0.982 ± 0.023
TACGTGGGTT	0.994 ± 0.051
ATGATAGGGG	0.998 ± 0.023
AGGGGGTTTC	1 ± 0.022
GAAATTATCA	0.977 ± 0.025
AGGGGCGAGA	0.999 ± 0.013
ATGAGATTCG	0.99 ± 0.026
CTAGTCGTCG	1.02 ± 0.019
TCATTATGGA	0.989 ± 0.014
TATACCATTA	0.997 ± 0.051
CGGCGTTGCT	0.981 ± 0.045
ATGAAAATGG	0.971 ± 0.019
GCACGGGCCC	0.99 ± 0.028
AGTATTTTGT	0.974 ± 0.011
CGTGCTGGTG	1.03 ± 0.022

Sequence	switch fluorescence ratio
TAAAAAAGGT	1.04 ± 0.088
TTGGGGCAGG	1.1 ± 0.07
TCTAAGTTTT	0.97 ± 0.01
ACATTTAGCT	1.01 ± 0.03
GGTATAGGAT	0.991 ± 0.025
AAGGGAGAGC	1.03 ± 0.06
GACAAAGGGC	1.08 ± 0.027
CAAGCTTGGG	1 ± 0.034
AGGGGAATAA	0.997 ± 0.015
TTGTACTATC	1.01 ± 0.063
AGGCACGGGC	1.0064 ± 0.001
TGCGGCCCAT	0.979 ± 0.016
ACGATGTGTT	1.01 ± 0.025
GACCGAAAAT	1.055 ± 0.0015
GTTATAAGGA	0.988 ± 0.019
GGTCCGGGCG	0.997 ± 0.024
TCATTCATGG	0.977 ± 0.011
GAGGGGTAGC	0.988 ± 0.016
ACGGGGTTCT	0.965 ± 0.032
GAAGGATGCT	1.03 ± 0.098
TTGGCTACTG	0.962 ± 0.065
CGGGTGCAAA	1.08 ± 0.016
ATAGACGTGT	1.02 ± 0.092
AGGGCTGGAT	1.06 ± 0.12
CCATGTGTTG	1.03 ± 0.043

Sequence	switch fluorescence ratio
TAACGGTTAT	1.01 ± 0.024
ACACAGTATT	1.0263 ± 0.00076
GCAATTGAGT	0.997 ± 0.036
GAGCTGAATG	0.9518 ± 0.0063
AAAAAGGAAT	0.982 ± 0.011
GAGTGTGGGG	0.96 ± 0.03
TGAAAAACGT	0.991 ± 0.013
GATTAGGGTG	1.01 ± 0.026
CGATCCCATT	1.05 ± 0.037
GAGGTAAAAT	0.968 ± 0.016
ACTATGTGTG	0.99 ± 0.031
TTGGGAGCTG	1.021 ± 0.0068
TGGGGGCGGC	1.046 ± 0.0061
TTAGTTTGGA	0.959 ± 0.04
GCTGTAGGCG	0.988 ± 0.015
TGAGTAGAGG	1 ± 0.02
TGTTTAAGAC	1.05 ± 0.092
CTTTTTTTTA	0.985 ± 0.021
ACCATTTTTT	0.9862 ± 0.006
TGAAAAAAAT	1.05 ± 0.058
TTAGTTGGGG	1.01 ± 0.032
GGGGGACGAC	0.969 ± 0.035
TAAGGGTATG	0.965 ± 0.066
TACGGGGGTC	1.02 ± 0.047
TACGTGATTT	1.14 ± 0.093

Sequence	switch fluorescence ratio
GATTTACAGC	1.02 ± 0.054
TTAGAGGGCA	0.99086 ± 0.00097
GGGTATTACG	0.975 ± 0.023
AAGATATCTG	1.01 ± 0.032
AATGAATTTG	0.975 ± 0.043
AGGGGCCTGT	0.962 ± 0.037
AGTTTTAGGT	1.02 ± 0.036
GCTCGACGGC	1.017 ± 0.0018
GGTTTTGTTA	1.03 ± 0.086
TGAATGGGGT	0.987 ± 0.02
TGTGTTAAGA	0.9898 ± 0.0095
AAGAATATAT	0.991 ± 0.018
TCCGGGTTTG	1.02 ± 0.037
GACTTGAATT	0.99 ± 0.034
AGGGGCTGAA	0.986 ± 0.042
CCGGTTGGTG	1 ± 0.036
GCCTTTAGGG	1 ± 0.024
CTGCTAGTTT	0.983 ± 0.016
TTCTTTCGAG	1.026 ± 0.0045
GGCAGCTGGA	0.9578 ± 0.0072
ATGTACGGAT	1.02 ± 0.059
CGATAAGGGG	1.02 ± 0.018
TAAGATTCGT	1 ± 0.031
TCATTTTTAC	1.049 ± 0.0072
AGTCAATGAC	0.968 ± 0.012

Sequence	switch fluorescence ratio
AACGGGTGAG	0.9856 ± 0.0092
CATGCACACT	1.11 ± 0.053
GGGTGCGGCA	0.998 ± 0.019
GAGCAGGGGT	1.04 ± 0.063
AGGGTAGGCC	1.009 ± 0.0019
TTTATACGT	0.9783 ± 0.0067
TTATATGGAG	0.979 ± 0.034
CGGGCTGGTG	1.0093 ± 0.0005
GACTGGGCGG	1 ± 0.021
AGATTGTGCA	0.963 ± 0.011
TGCTAACTTT	0.999 ± 0.052
AGTGTCACGA	1.01 ± 0.015
CGGGGGTTCA	1.01 ± 0.035
CGACAGGTTC	1.0621 ± 0.00069
GGTACTAATA	1.023 ± 0.007
CAGCCCGATC	1.22 ± 0.032
TTATTTGCGG	0.989 ± 0.025
TGGGGATTCC	1.01 ± 0.016
GGGGGACTCT	0.986 ± 0.041
GGTTGGGCTT	0.979 ± 0.012
GATTGGGTAG	0.999 ± 0.02
TAAAAAATGG	1 ± 0.044
TCTAATATAC	1.62 ± 0.028
TAATTGGGAG	1.01 ± 0.02
TTTACTAAGG	1.03 ± 0.02

Sequence	switch fluorescence ratio
AAGTCTGTCT	0.998 ± 0.054
GGGTGTTGTA	1 ± 0.055
TTTTCTGGCT	1.04 ± 0.035
AGGTCCCAGC	1 ± 0.02
GATTATCTGG	0.984 ± 0.025
GGTCTGTTTT	0.992 ± 0.022
ATTAAAGCCC	1.02 ± 0.039
TTTCGTGGGG	0.992 ± 0.056
GCGGAGGCGT	0.984 ± 0.01
TTCACGGTTC	1.02 ± 0.027
GGGACGAGGG	1.03 ± 0.035
CGGTAGGCTT	0.996 ± 0.037
GATTGTTTTA	1.02 ± 0.016
ATATCAGCGC	1.03 ± 0.018
GGTGTTCGGA	1 ± 0.031
GGGAAGGGTT	0.998 ± 0.029
TAAAGACAGC	1.006 ± 0.0073
AAATTTTTGG	1.01 ± 0.045
ATAAGTTTTA	0.989 ± 0.0099
TGGCGTCTTA	0.9875 ± 0.0033
AAGTGTCAGT	0.977 ± 0.065
AGTAGGGAAA	1 ± 0.033
GATTGAGGAG	0.981 ± 0.03
TATGAGGATG	1.01 ± 0.031
ATGTATTGCG	0.988 ± 0.044

Source: the supplement of paper PMC10126150
